Experimental data: the supplement of paper PMC9170038

Test system: MS2 coat protein
Assay: apparent KD of MS2 coat protein; designed switch direction (-1 OFF switch, 1 ON switch): -1; higher = weaker reporter binding
In short: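 The apparent KD reported per design is the median over clusters of curve fits to normalised cluster fluorescence. The RNA switches were transcribed on Illumina chips by stalled E. coli RNA polymerase. SNAP-549-labelled MS2 coat protein was titrated from 0.7 or 1.5 nM, doubling up to 3 µM, in Tris-HCl pH 7.5 buffer containing KCl, MgCl2, BSA, DTT, tRNA and Tween-20, with no input, 200 uM small-molecule ligand, or an oligonucleotide input.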

[1] = input ligand: microRNA oligo, concentration not stated
[2] = Eterna round: R95, input ligand: FMN 200 uM
[3] = Eterna round: R95, input ligand: microRNA oligo, concentration not stated
[4] = Eterna round: R95, input ligand: none

GUCCUCAUGACAUGAGGAUCACCCAUGUAUUAUUUGUUAACUGAGGAUAUACUCUUAUUUUUUAUGUAGAAGGCAGAUUUGUUC [JR_ExcNG3_Sub021] (Eterna round: R96, puzzle: Exclusion NG 3)
apparent KD of MS2 coat protein (input ligand: FMN 200 uM): 43.1 nM
apparent KD of MS2 coat protein [1]: 27.7 nM
apparent KD of MS2 coat protein (input ligand: none): 31.2 nM

GUCCUGGACUAUCACAAGCACAUGAGGAUCACCCAUGUCAUGGGUAGAUCCAUAAAUAAAGAUACUGCUCGUCUUAU [Cac sensor turnoff var1 sub5] (Eterna round: R97, puzzle: Sensor, turn-off variant 1)
apparent KD of MS2 coat protein (input ligand: FMN 200 uM): 177 nM
apparent KD of MS2 coat protein (input ligand: none): 303 nM

GUCCUGGUAGGAUAUGAGGUUCACGACAUGAGGAUCACCCAUGUGGCCGUGUCUCAUACUUCAGAAGGACCGACAG [Eternabot (L2) Solution 5] (Eterna round: R97, puzzle: Exclusion 5)
apparent KD of MS2 coat protein (input ligand: FMN 200 uM): 16.1 nM
apparent KD of MS2 coat protein (input ligand: none): 15.7 nM

GUCGCUUUUUGUUUGUUUUACAUGAGGAUCACCCAUGUACGUUGGUUACAAUAAAGUUCCGUGGCGGAUCAAUCUGA [Eternabot (L1) Solution 12] (Eterna round: R97, puzzle: Sensor, turn-off variant 1)
apparent KD of MS2 coat protein (input ligand: FMN 200 uM): 24.9 nM
apparent KD of MS2 coat protein (input ligand: none): 28.2 nM

GUCGGACAUGAGGAUCACCCAUGUGAGGAUAUCCUUUAGAGCUAUUAGUAGAUGCUUAGGAGAAGGCACUAGGG [Eternabot (L2) Solution 17] (Eterna round: R97, puzzle: Exclusion 1)
apparent KD of MS2 coat protein (input ligand: FMN 200 uM): 93.9 nM
apparent KD of MS2 coat protein (input ligand: none): 314 nM

GUCGUGCGGCUUUGCUGUGCGAGUACAUGAGGAUCACCCAUGUAGGAUAUGGUACGCUUUGCGUGCCAGAAGGGCGUGCGUUGG [salish99_ExNG3_r04_007] (Eterna round: R96, puzzle: Exclusion NG 3)
apparent KD of MS2 coat protein (input ligand: FMN 200 uM): 38 nM
apparent KD of MS2 coat protein [1]: 28.6 nM
apparent KD of MS2 coat protein (input ligand: none): 35.4 nM

GUCGUGUUAGGAUAUUGGCCUUUUAGAUGCACUAAGUGAGACGAGAAGGGACAUGAGGAUCACCCAUGUAAUAA [Eternabot (L1) Solution 69] (Eterna round: R97, puzzle: Exclusion 4)
apparent KD of MS2 coat protein (input ligand: FMN 200 uM): 47.4 nM
apparent KD of MS2 coat protein (input ligand: none): 36.4 nM

GUGAAACAUGAGGAUCACCCAUGUGAGGAUAUGAUUUAGUAAUGGAGACAGUACAUAUUCAGAAGGCACAAUGG [Mat - Mod of JL D76] (puzzle: Exclusion 1)
apparent KD of MS2 coat protein [2]: 55.2 nM
apparent KD of MS2 coat protein [3]: 150 nM
apparent KD of MS2 coat protein [4]: 182 nM

GUGAAGUAAGGAUAUACAUGAGGAUCACCCAUGUGGAGGAAGGUGAUGGGAGUAGGUAGUAGAAGGUACGAGGA [JR_Exclu3_Sub064] (Eterna round: R96, puzzle: Exclusion 3)
apparent KD of MS2 coat protein (input ligand: FMN 200 uM): 304 nM
apparent KD of MS2 coat protein [1]: 134 nM
apparent KD of MS2 coat protein (input ligand: none): 207 nM

GUGAAGUAAGGAUAUACAUGAGGAUCACCCAUGUGGAGGAAGGUGAUGGGAGUAGGUAGUAGAAGGUACGAGGA [JR_Exclu3_Sub064] (puzzle: Exclusion 3)
apparent KD of MS2 coat protein [2]: 115 nM
apparent KD of MS2 coat protein [3]: 159 nM
apparent KD of MS2 coat protein [4]: 201 nM

GUGAAGUGAGGAUAUACGAGAGAGGCUGAACCUGGAGAGAAGUAGAAGGCACAUGAGGAUCACCCAUGUUAGGA [JR_Exclu4_Sub021] (puzzle: Exclusion 4)
apparent KD of MS2 coat protein [3]: 38 nM

GUGAGACAUGAGGAUCACCCAUGUGAGGAUAUCCGAAGGACCAAAUUAAGAAUAGAAGGGAGAAGGCACAUAAA [Exclusion 1 V6] (puzzle: Exclusion 1)
apparent KD of MS2 coat protein [2]: 128 nM
apparent KD of MS2 coat protein [3]: 68.4 nM
apparent KD of MS2 coat protein [4]: 157 nM

GUGAGCAGACGGAGAUCCUACAUGAGGAUCACCCAUGUCUCACUAGCUUUUUGCUCGUCUUAUCCUCCUCUGUUCAC [Elimod 24 - Jieux - Sensor, turn-off variant 1] (Eterna round: R97, puzzle: Sensor, turn-off variant 1)
apparent KD of MS2 coat protein (input ligand: FMN 200 uM): 21.8 nM
apparent KD of MS2 coat protein (input ligand: none): 21.6 nM

GUGAUCUAUCAUGUAAUAAACAUGAGGAUCACCCAUGUAGACAAGUUUUUUGCUCGUCUUAUAAUAAGAUAGAUCAC [Antenna 15 - Jieux - Sensor, turn-off variant 1] (Eterna round: R97, puzzle: Sensor, turn-off variant 1)
apparent KD of MS2 coat protein (input ligand: FMN 200 uM): 16.3 nM
apparent KD of MS2 coat protein (input ligand: none): 15.9 nM

GUGCAAUGAGGAUAUACGUUGGUGAACAUCUGUGUGCUCCUACAUGAGGAUCACCCAUGUAGAAGGCAUGUCAC [LRO-Excl2-18] (Eterna round: R96, puzzle: Exclusion 2)
apparent KD of MS2 coat protein (input ligand: FMN 200 uM): 18.3 nM
apparent KD of MS2 coat protein [1]: 10.8 nM
apparent KD of MS2 coat protein (input ligand: none): 14.1 nM

GUGCAAUGAGGAUAUACGUUGGUGAACAUCUGUGUGCUCCUACAUGAGGAUCACCCAUGUAGAAGGCAUGUCAC [LRO-Excl2-18] (puzzle: Exclusion 2)
apparent KD of MS2 coat protein [3]: 11.3 nM

GUGCCGCGAGGAUAUACAGACGGGUCCAGUACGUGUCUGGGACUUGAGGAUCACCCAAGUAGAAGGCGUCUCAG [salish99_ex2_r4_613] (Eterna round: R97, puzzle: Exclusion 2)
apparent KD of MS2 coat protein (input ligand: FMN 200 uM): 39.9 nM
apparent KD of MS2 coat protein (input ligand: none): 44.6 nM

GUGCGACAUGAGGAUCACCCAUGUCAGGAUAUAUAGAACGAUAACGAAAUCGUUAUCGGUAGAAGGGACGGUGA [Eternabot (L1) Solution 48] (Eterna round: R97, puzzle: Exclusion 1)
apparent KD of MS2 coat protein (input ligand: FMN 200 uM): 18.6 nM
apparent KD of MS2 coat protein (input ligand: none): 21.4 nM

GUGCGCGGCUAGGAUAUUGUGGGUUUUUGUCUGCGAGAAGGAGCCACAUGAGGAUCACCCAUGUGGUGUUGCUC [salish99_ex6_r4_013] (Eterna round: R97, puzzle: Exclusion 6)
apparent KD of MS2 coat protein (input ligand: FMN 200 uM): 220 nM
apparent KD of MS2 coat protein (input ligand: none): 63.6 nM

GUGGUACAUGAGGAUCACCCAUGUUAGGAUAUCGCGUGAGGUUUUACUUACACACACACGAGAAGGGACGUCUU (puzzle: Exclusion 1)
apparent KD of MS2 coat protein [3]: 43.2 nM

GUGGUACAUGAGGAUCACCCAUGUUAGGAUAUCGCGUGAGGUUUUACUUCCGCACGCGCGAGAAGGGACGUCUU (puzzle: Exclusion 1)
apparent KD of MS2 coat protein [3]: 28.9 nM

GUGGUACAUGAGGAUCACCCAUGUUAGGAUAUCGCGUGGUUUUUUGCGGCCGCGCGCGCGAGAAGGGACGUCUU (puzzle: Exclusion 1)
apparent KD of MS2 coat protein [3]: 29.3 nM

GUGUACAGAGGAUAUAUAUGGGCAUGGAAACAUGCAACUUCACAUGAGGAUCACCCAUGUAGAAGGCUGUACAC [Ex2: 712] (Eterna round: R96, puzzle: Exclusion 2)
apparent KD of MS2 coat protein (input ligand: FMN 200 uM): 332 nM
apparent KD of MS2 coat protein [1]: 23 nM
apparent KD of MS2 coat protein (input ligand: none): 28.9 nM

GUGUACAGAGGAUAUGCACGAGUAGUUACGAAAGUAACUGCACAUGAGGAUCACCCAUGUAGAAGGCUGUACAC [Dot plot directed v4] (puzzle: Exclusion 2)
apparent KD of MS2 coat protein [3]: 15.4 nM

GUGUACGGAGGAUAUAUAUGGGCAGGCUGACCUGCAGCUUCACAUGAGGAUCACCCAUGUAGAAGGCUGUACAC [Mat - Exclusion 2 - Mod of Hyphema - D98] (puzzle: Exclusion 2)
apparent KD of MS2 coat protein [3]: 33.2 nM

GUGUAGAUAGGAUAUGCAUAGAGCUUACGAAAGUAGGCUCUACAUGAGGAUCACCCAUGUAGAAGGGUCUACAC [Dot plot directed A v15] (puzzle: Exclusion 2)
apparent KD of MS2 coat protein [3]: 25 nM

GUGUAGUCAGGAUAUACAUAGGAAGAGAAUAUAAUAUAAGUACAUGAGGAUCACCCAUGUAGAAGGGACAGUGU [Excluse me!! 8 - Jieux - Exclusion 2] (puzzle: Exclusion 2)
apparent KD of MS2 coat protein [3]: 29.4 nM

GUGUGCACGCUGCGAUCCUACAUGAGGAUCACCCAUGUGGUCUGGUGGCGUGGGUCACCGGACUUGGCUCGUCUUGA [salish99_S_TOV1_R5_069] (Eterna round: R97, puzzle: Sensor, turn-off variant 1)
apparent KD of MS2 coat protein (input ligand: FMN 200 uM): 121 nM
apparent KD of MS2 coat protein (input ligand: none): 118 nM

GUGUGCAGAGGAUAUACAGAGGAAAAGAAAAGAGAAGGGAGACAUGAGGAUCACCCAUGUAGAAGGCUGAGUGU [Excluse me!! 20 - Jieux - Exclusion 2] (puzzle: Exclusion 2)
apparent KD of MS2 coat protein [3]: 63.4 nM

GUUAAACAUGAGGAUCACCCAUGUAAGGAUAUGCUGAGGUAGAGAUGAAGUGAAUGAAGCAGAAGGUACAAAUG [Mat - Mod of JL D64] (puzzle: Exclusion 1)
apparent KD of MS2 coat protein [2]: 51.5 nM
apparent KD of MS2 coat protein [3]: 83.2 nM
apparent KD of MS2 coat protein [4]: 113 nM

GUUAACGCAGGAUAUUAGUACAUGUACAUGAGGAUCACCCAUGUUUAUUGGGUCUAAGAAUAAGAAGGGCGAUGAA [JR_Ex5_Sub006] (Eterna round: R97, puzzle: Exclusion 5)
apparent KD of MS2 coat protein (input ligand: FMN 200 uM): 402 nM
apparent KD of MS2 coat protein (input ligand: none): 631 nM

GUUAAGUGAGGAUAUGGUGAGUAGUGCCAGAGCGCUGCUCACCAGAAGGCACAUGAGGAUCACCCAUGUAUAGC [Mat - Exclusion 4 - Mod of JL - D15] (puzzle: Exclusion 4)
apparent KD of MS2 coat protein [3]: 13 nM

GUUAAUUGUGACAUGGGUGACAUGAGGAUCACCCAUGUCACAAGCUUUUUGCUCGUCUUAUAAUUAACCCAUGUCAC [Stov1/13-A2] (Eterna round: R97, puzzle: Sensor, turn-off variant 1)
apparent KD of MS2 coat protein (input ligand: FMN 200 uM): 29.1 nM
apparent KD of MS2 coat protein (input ligand: none): 41.2 nM
